Source: JP2023550785A (dated 2023)

Legend:
[1] = target: T1, spike protein of alphacoronavirus 229E-CoV (HCoV-229E, UniProt P15423 16-1115); assay: ELISA on alphacoronavirus spike proteins (Fig 37)
T1 sequence: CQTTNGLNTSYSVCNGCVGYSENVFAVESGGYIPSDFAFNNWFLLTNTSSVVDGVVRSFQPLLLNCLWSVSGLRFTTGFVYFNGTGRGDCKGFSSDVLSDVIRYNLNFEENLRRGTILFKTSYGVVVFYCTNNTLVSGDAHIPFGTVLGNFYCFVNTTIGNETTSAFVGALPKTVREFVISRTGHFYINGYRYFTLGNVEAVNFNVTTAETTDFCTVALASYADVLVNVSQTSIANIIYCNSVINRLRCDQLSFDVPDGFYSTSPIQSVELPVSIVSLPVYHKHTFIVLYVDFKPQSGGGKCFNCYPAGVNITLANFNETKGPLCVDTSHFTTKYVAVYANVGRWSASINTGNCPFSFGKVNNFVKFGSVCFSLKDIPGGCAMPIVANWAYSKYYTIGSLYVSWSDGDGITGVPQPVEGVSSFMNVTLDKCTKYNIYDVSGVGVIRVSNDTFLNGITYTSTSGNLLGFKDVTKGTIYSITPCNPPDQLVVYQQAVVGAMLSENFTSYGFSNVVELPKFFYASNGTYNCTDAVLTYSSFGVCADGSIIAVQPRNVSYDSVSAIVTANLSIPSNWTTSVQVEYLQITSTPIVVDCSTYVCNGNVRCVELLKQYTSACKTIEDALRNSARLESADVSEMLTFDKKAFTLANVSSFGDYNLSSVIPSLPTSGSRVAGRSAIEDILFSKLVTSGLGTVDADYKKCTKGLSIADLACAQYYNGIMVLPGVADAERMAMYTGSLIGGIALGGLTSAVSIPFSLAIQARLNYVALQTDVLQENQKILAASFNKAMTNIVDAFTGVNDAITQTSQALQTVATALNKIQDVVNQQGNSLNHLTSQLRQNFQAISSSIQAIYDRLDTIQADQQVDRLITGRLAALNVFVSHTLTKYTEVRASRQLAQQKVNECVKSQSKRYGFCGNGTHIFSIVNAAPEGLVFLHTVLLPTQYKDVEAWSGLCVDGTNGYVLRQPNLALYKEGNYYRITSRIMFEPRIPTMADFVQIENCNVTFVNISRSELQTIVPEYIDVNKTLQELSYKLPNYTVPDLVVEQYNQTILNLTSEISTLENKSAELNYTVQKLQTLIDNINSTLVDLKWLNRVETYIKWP

[2] = target: T2, MERS-CoV (London1/2012) prefusion-stabilized spike (S) protein / S ectodomain trimer (MERS-CoV (London1/2012), UniProt K9N5Q8 18-1296)
T2 sequence: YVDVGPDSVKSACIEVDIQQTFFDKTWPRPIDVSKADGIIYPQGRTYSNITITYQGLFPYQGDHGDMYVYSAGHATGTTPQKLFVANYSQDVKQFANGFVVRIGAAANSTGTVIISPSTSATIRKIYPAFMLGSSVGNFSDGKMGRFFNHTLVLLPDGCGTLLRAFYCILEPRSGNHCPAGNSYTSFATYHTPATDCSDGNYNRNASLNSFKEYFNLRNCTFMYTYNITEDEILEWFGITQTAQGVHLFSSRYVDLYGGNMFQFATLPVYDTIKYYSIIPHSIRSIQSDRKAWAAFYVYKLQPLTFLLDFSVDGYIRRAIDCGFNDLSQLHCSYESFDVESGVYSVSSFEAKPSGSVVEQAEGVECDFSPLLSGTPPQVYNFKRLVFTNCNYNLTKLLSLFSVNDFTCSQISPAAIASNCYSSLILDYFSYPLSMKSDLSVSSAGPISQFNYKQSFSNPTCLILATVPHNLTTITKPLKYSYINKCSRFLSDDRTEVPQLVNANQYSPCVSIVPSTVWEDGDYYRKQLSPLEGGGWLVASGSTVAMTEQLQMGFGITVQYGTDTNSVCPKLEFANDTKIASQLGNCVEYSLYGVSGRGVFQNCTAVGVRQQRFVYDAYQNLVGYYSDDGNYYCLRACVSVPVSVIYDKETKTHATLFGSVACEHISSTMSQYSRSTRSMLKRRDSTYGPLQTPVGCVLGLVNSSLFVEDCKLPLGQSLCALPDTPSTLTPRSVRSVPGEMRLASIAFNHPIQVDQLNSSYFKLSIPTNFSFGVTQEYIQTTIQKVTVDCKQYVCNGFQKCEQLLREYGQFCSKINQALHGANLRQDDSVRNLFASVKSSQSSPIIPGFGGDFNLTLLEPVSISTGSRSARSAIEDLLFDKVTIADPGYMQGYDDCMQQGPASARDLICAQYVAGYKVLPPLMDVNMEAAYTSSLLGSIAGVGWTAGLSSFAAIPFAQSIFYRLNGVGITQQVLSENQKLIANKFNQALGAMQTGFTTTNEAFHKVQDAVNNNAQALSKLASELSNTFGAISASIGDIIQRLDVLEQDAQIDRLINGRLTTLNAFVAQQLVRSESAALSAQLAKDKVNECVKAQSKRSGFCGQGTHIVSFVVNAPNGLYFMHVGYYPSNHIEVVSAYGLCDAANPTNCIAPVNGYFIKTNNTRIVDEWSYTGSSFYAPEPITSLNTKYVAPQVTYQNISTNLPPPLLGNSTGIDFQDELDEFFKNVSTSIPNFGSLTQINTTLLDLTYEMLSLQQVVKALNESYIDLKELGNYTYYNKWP

B1: antibody S2P6 (antibody 420 1 1), human monoclonal antibody expressed as recombinant human IgG1 (antibody, V domains shown)
VH: EVQLVQSGAEVKKPGASVKVSCKASGYTFTSQYMHWVRQAPGQGLEWIGIINPSGVHTSYAQKFQGRVTLTRDTSTSTLYMELSSLRSEDTAVYYCARGSPKGAFDYWGQGTLVTVSS
VL: not shown
For B1, the binding result [1] was “no binding” and the Kd [2] was 1.14 nM.
